T1: PLCγ1 tandem nSH2-cSH2 domains, wild type (human, UniProt P19174 545-790)
T1 construct: PLCγ1 (phospholipase C gamma 1), tandem nSH2 and cSH2 domains with part of the cSH2-SH3 linker; residue numbering is for human PLCγ1; also called nSH2-cSH2^wt; nSH2cSH2^WT
T1 sequence: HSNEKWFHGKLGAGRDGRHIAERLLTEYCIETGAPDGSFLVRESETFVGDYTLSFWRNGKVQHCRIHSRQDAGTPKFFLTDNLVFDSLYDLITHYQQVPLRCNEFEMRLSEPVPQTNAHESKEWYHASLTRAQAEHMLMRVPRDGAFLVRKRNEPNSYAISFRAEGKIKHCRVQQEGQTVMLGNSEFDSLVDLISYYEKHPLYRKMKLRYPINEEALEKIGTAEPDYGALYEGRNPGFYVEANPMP

T2: PLCγ1 nSH2-cSH2 Y771F,Y775F (545–790) phosphorylated on Y783 (human, UniProt P19174 545-790, Y771F | Y775F, phosphotyrosine at 783)
T2 construct: PLCγ1, tandem nSH2-cSH2 with the cSH2-SH3 linker, residues 545-790; residue numbering is for human PLCγ1; also called nSH2-cSH2^Y771F,Y775F,pY783; nSH2cSH2^pY783
T2 sequence (looked up): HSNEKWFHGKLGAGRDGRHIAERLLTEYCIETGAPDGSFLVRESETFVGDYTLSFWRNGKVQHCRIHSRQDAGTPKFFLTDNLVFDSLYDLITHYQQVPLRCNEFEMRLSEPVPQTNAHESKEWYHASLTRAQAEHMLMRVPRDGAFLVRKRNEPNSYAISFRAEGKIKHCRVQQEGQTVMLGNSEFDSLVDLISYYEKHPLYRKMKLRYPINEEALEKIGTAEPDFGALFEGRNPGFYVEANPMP

T3: PLCγ1 cSH2 domain, wild type (human)
T3 sequence (P19174 whole entry, looked up): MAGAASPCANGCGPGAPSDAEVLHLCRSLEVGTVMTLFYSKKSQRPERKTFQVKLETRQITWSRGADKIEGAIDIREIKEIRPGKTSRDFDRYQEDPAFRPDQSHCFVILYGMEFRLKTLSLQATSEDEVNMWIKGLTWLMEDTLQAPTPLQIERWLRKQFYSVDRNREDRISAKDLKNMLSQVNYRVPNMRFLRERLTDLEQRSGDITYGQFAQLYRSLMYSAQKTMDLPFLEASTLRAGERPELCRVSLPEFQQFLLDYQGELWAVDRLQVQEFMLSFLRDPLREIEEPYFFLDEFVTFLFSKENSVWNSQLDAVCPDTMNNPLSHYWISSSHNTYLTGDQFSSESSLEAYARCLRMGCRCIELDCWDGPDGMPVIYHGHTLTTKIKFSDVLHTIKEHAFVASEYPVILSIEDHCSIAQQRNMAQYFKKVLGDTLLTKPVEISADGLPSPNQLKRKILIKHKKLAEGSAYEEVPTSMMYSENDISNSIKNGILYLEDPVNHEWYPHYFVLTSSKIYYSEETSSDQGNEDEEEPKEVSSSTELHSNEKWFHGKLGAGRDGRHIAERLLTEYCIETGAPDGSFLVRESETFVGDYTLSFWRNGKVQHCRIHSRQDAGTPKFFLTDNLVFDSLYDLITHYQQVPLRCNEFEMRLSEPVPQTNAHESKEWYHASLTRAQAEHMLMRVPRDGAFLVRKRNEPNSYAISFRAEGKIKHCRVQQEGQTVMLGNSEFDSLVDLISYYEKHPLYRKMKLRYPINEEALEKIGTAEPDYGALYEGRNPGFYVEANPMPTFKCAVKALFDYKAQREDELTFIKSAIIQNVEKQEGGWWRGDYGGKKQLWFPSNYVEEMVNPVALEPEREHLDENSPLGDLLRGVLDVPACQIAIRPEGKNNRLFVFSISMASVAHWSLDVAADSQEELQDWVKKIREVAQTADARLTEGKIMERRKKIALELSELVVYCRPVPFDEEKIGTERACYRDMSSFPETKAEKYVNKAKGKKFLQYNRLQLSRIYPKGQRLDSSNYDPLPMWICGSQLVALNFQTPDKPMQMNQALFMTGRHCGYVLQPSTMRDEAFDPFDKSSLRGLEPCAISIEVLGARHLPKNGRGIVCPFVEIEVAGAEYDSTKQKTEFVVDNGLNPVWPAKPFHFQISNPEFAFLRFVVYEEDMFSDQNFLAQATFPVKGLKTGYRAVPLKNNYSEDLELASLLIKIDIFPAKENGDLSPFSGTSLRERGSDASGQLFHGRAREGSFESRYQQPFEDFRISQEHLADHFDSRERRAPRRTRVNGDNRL


Experiments:
FGFR1 kinase domain = FGFR1 kinase domain (UniProt P11362); assay: ITC, two-site fit; settings: reference: nonphosphorylated wild-type nSH2-cSH2; sites Y783
[1] = target: PLCγ1 PLC-core (residues 13−1215, Δ488–933, H335A) (human) (UniProt P19174); assay: ITC; cSH2 domain in the syringe, PLC-core in the cell
[2] = target: PLCγ1 specific array of domains (γSA), wild type (human); assay: ITC; FGFR1-1p in the syringe, PLCγ1 construct in the cell; corrected for heat of dilution; fit to a two-site model (nSH2-cSH2 constructs) or a one-site model (γSA)
[3] = target: T1, PLCγ1 tandem nSH2-cSH2 domains, wild …; assay: as above; settings: both partners purified
[4] = target: T2, PLCγ1 nSH2-cSH2 Y771F,Y775F (545–790) …; assay: as above; settings: both partners purified
[5] = target: T3, PLCγ1 cSH2 domain, wild type (human); assay: NMR titration; 15N-labelled spPH, nSH2 or cSH2 domain observed by 1H-15N HSQC, unlabelled PLC-core (H335A) added up to 1:1; 25°C; for cSH2 then the phosphopeptide NPGFpYVEANPMP to 1:1:1

Row | Kd [1] [µM] | dH [1] [kcal/mol] | stoichiometry N [1] | Molecule | other results
1 | – | – | – | PLCγ1 nSH2-cSH2 tandem, 545-790 (from UniProt P19174) nSH2-cSH2 Y771F,Y775F phosphorylated at Y783 | KD (FGFR1 kinase domain): weaker; reference 0.005 ± 0.001
2 | 49.5 | -1.43 | 1.17 | PLCγ1 cSH2 domain N728D (domain or fragment) | –
3 | 23.9 | 0.587 | 1.14 | PLCγ1 cSH2 domain, wild type (domain or fragment) | –
4 | 61.3 | -1.45 | 1 | PLCγ1 cSH2 domain S729Y (domain or fragment) | –
5 | – | – | – | FGFR1-1p kinase domain (pY766) (domain or fragment, UniProt P11362 458-774, looked up, phosphotyrosine at 766, fibroblast growth factor receptor 1 (FGFR1), kinase domain with the C-terminal tail holding pY766; see the Supplemental Experimental Procedures) AGVSEYELPEDPRWELPRDRLVLGKPLGEGCFGQVVLAEAIGLDKDKPNRVTKVAVKMLKSDATEKDLSDLISEMEMMKMIGKHKNIINLLGACTQDGPLYVIVEYASKGNLREYLQARRPPGLEYCYNPSHNPEEQLSSKDLVSCAYQVARGMEYLASKKCIHRDLAARNVLVTEDNVMKIADFGLARDIHHIDYYKKTTNGRLPVKWMAPEALFDRIYTHQSDVWSFGVLLWEIFTLGGSPYPGVPVEELFKLLKEGHRMDKPSNCTNELYMMMRDCWHAVPSQRPTFKQLVEDLDRIVALTSNQEYLDLSMPLD | Kd [2]: 0.185 µM; dH [2]: -7.09 kcal/mol; stoichiometry N [2]: 1.03; dH, first binding event [3]: -6.5 ± 0.183 kcal/mol; dH, second binding event [3]: 7.12 ± 0.23 kcal/mol; dH, first binding event [4]: -8.307 ± 0.025 kcal/mol; dH, second binding event [4]: 37.7 ± 5.13 kcal/mol
6 | – | – | – | PLCγ1 PLC-core (residues 13−1215, Δ488–933, H335A) (domain or fragment) GPGAPSDAEVLHLCRSLEVGTVMTLFYSKKSQRPERKTFQVKLETRQITWSRGADKIEGAIDIREIKEIRPGKTSRDFDRYQEDPAFRPDQSHCFVILYGMEFRLKTLSLQATSEDEVNMWIKGLTWLMEDTLQAPTPLQIERWLRKQFYSVDRNREDRISAKDLKNMLSQVNYRVPNMRFLRERLTDLEQRSGDITYGQFAQLYRSLMYSAQKTMDLPFLEASTLRAGERPELCRVSLPEFQQFLLDYQGELWAVDRLQVQEFMLSFLRDPLREIEEPYFFLDEFVTFLFSKENSVWNSQLDAVCPDTMNNPLSHYWISSSANTYLTGDQFSSESSLEAYARCLRMGCRCIELDCWDGPDGMPVIYHGHTLTTKIKFSDVLHTIKEHAFVASEYPVILSIEDHCSIAQQRNMAQYFKKVLGDTLLTKPVEISADGLPSPNQLKRKILIKHKKLAEGSAYEEVPTSMMYSENDISDARLTEGKIMERRKKIALELSELVVYCRPVPFDEEKIGTERACYRDMSSFPETKAEKYVNKAKGKKFLQYNRLQLSRIYPKGQRLDSSNYDPLPMWICGSQLVALNFQTPDKPMQMNQALFMTGRHCGYVLQPSTMRDEAFDPFDKSSLRGLEPCAISIEVLGARHLPKNGRGIVCPFVEIEVAGAEYDSTKQKTEFVVDNGLNPVWPAKPFHFQISNPEFAFLRFVVYEEDMFSDQNFLAQATFPVKGLKTGYRAVPLKNNYSEDLELASLLIKIDIFPAK | Kd [5]: 25 µM

From paper PMC3532599, “Structural and Functional Integration of the PLCγ Interaction Domains Critical for Regulatory Mechanisms and Signaling Deregulation” (Structure(London, England:1993), 2012)
